# Test results: patent US10295537B2, “Biorecognition elements for rapid detection of biocontamination” (The United States of America, as represented by the …, priority 2017, dated 2019)
# Assays:
# [1] = target: T1, biotinylated OprF1 (Pseudomonas aeruginosa, UniProt P13794); experiment: Unamplified competitive solution biopanning of 14 monoclonal phages against biotinylated OprF1; percent abundance among 30 clones as relative affinity; assay type: binding, P. aeruginosa; settings: Bushnell-Haas pH 8.5 with 1% v/v Jet-A, 30 randomly selected clones
# T1 construct: Biotinylated at its N-terminal, an OprF1 synthetic peptide was used for solution biopanning screening
# T1 sequence (P13794 whole entry, looked up): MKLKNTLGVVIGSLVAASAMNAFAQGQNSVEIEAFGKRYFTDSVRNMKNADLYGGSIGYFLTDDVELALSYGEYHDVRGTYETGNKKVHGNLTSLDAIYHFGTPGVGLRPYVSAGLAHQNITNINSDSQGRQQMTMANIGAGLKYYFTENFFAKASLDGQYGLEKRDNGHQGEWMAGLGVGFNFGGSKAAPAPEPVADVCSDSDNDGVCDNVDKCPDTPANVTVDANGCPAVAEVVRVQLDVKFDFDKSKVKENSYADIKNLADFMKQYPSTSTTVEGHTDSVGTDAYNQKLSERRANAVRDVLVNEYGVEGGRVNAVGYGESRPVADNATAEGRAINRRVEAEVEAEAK
# [2] = target: T2, OprF1 (Pseudomonas aeruginosa, UniProt P13794); experiment: Solution-phase biopanning of Ph.D.-7 phage library against OprF1 with amplification, physiological conditions, clone abundance; assay type: binding, P. aeruginosa; settings: four rounds with amplification, physiological conditions (pH 7)
# T2 sequence (P13794 whole entry, looked up): T1 sequence (P13794 whole entry, looked up)
# Source text: Biotinylated at its N-terminal, an OprF1 synthetic peptide was used for solution biopanning screening of a commercially-available M13 bacteriophage library displaying heptameric peptides at the N-terminal of P3 coat protein. Solution-phase biopanning provided the benefit of including the availability of all the OprF1 aa residues for interaction with the potential peptide binder with lessened likelihood of isolating unspecific peptides that might bind to the capture element used to purify the phage-antigen complex (i.e., magnetic or protein G beads).
# Generally, solution-phase biopanning was carried out as described by the manufacturer (New England Biolabs, Ipswich, Mass.) with some modifications, including the changing of pH from 7.0 to 5.5 and 8.5 and adding 1% v/v of Jet A fuel. The first round of selection was carried out by diluting Ph.D.-7 bacteriophage library 100-fold in 0.1% Tris buffer saline plus Tween 20 (0.1% TBST) at the appropriate pH for selection plus fuel. Subsequently, the phage library was incubated with 1 μg of N-terminal biotinylated target protein fragment (OprF1: […] (SEQ. ID No. 1), OprF2: ADIKNLADFMK QYPSTSTT (SEQ. ID No. 2), Opr86: […] STP (SEQ. ID No. 3)) for 1 hr at 25° C. […] Titer of the amplified phage (more than 10^10 pfu/mL) was determined by infection into E. coli ER2738 and subsequent growth in selective medium containing X gal/IPTG. […]
# [3] = target: biotinylated bovine serum albumin (BSA) (Bos taurus, UniProt P02769); experiment: Biopanning against biotinylated BSA to identify target-unrelated peptides; assay type: binding; settings: phage displaying the peptide, round 3
# Source text: The phage library was then screened to identify target-unrelated peptides by using biotinylated bovine serum albumin (“BSA”) as a target for biopanning.
# Sequence of biotinylated bovine serum albumin (BSA) (P02769 25-607): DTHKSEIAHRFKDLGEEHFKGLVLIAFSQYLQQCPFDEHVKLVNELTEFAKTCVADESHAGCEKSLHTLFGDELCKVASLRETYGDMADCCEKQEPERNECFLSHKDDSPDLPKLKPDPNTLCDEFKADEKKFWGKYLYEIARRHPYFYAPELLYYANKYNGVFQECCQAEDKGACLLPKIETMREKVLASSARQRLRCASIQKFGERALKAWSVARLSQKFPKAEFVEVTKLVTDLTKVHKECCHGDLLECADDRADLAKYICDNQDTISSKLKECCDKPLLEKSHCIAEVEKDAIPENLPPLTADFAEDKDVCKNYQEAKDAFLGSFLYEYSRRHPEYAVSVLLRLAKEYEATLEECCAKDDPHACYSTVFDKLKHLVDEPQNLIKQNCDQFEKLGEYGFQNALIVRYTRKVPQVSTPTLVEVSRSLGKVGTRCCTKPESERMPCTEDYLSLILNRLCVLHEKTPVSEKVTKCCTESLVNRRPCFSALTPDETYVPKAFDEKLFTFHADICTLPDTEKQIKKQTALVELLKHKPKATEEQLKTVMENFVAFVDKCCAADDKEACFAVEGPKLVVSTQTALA
substance,measurement,setting,value
"PPKINIM (Artificial sequence obtained through biopanning.) [target-unrelated, cross-reacts with BSA]",% Abundance,[1],3%
same,abundance based on round 4 clones,[2],80%
same,cross-reaction with BSA,[3],cross-react with BSA
